Here are results for 1 molecule from doi:10.1101/2023.09.26.559624 (bioRxiv, 2023).

Test [1] concerns the target T1, human non-variant SASH1-SPIDER (396-564) (human, UniProt O94885 396-564).
T1 sequence (looked up): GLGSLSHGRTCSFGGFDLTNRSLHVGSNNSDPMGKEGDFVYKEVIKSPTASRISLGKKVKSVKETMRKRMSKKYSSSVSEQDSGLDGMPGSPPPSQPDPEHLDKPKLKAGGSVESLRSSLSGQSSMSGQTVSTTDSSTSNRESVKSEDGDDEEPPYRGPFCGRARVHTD
Briefly: MST.

Test [2] deals with T2, SASH1-SPIDER (396-564) S519N (human, UniProt O94885 396-564, S519N).
T2 sequence (looked up): T1 sequence (looked up) with S124N
Briefly: NMR titration.

Numbering of substitutions follows the chain as printed.

B1: ARC4 domain of TNKS2 with flanking residues (488-649) (domain or fragment, UniProt Q9H2K2 488-649, looked up)
chain: GNSEADRQLLEAAKAGDVETVKKLCTVQSVNCRDIEGRQSTPLHFAAGYNRVSVVEYLLQHGADVHAKDKGGLVPLHNACSYGHYEVAELLVKHGAVVNVADLWKFTPLHEAAAKGKYEICKLLLQHGADPTKKNRDGNTPLDLVKDGDTDIQDLLRGDAAL
modifications: red fluorescent dye NT-647 Maleimide (in the MST experiment only)
Broadly, the Kd is a measure of binding affinity in units of concentration. A higher Kd goes with a looser complex. Molecule B1 yielded a Kd in test [1] of 1700 ± 400 nM. Also, the “fold attenuation of affinity against N.V.” value in test [2] is approximately 10 fold.
